The target of one data set is PP1c (γ1-isoform) (Homo sapiens, UniProt P36873). Put plainly: Far Western: GST-GM fusion proteins probed with digoxygenin-labelled PP1γ. The following applies: GST-fusion proteins on blot probed with digoxygenin-labelled PP1γ. The data set is classed as binding. The source says: GST-GM fusion proteins were electrophoresed on 10% SDS/polyacrylamide gels and stained with Coomassie blue (lanes 1-3) or, after transfer to nitrocellulose, probed with digoxygenin-labelled PP1γ (lanes 4-6) as in [9]. Lanes 1 and 4, GST-GM-(E2-D118); Lanes 2 and 5, GST-GM-(H100-P350); Lanes 3 and 6, GST. The positions of the marker proteins glycogen phosphorylase (97 kDa), bovine serum albumin (66 kDa), ovalbumin (43 kDa), carbonic anhydrase (29 kDa) and soybean trypsin inhibitor (20 kDa) are indicated.
(§1) The myosin-associated form of PP1 (PP1M) was from chicken gizzard and the glycogen-associated form of PP1 (PP1G) from rabbit skeletal muscle. The β isoform of PP1c was released from PP1G by incubation for 2 hours in 2M LiBr, then purified by gel-filtration on a 30×1 cm column of Superose 12 (Pharmacia, Milton Keynes, U.K.) in the presence of 0.5M LiBr. Glycogen protein particles from rat liver were used as the source of hepatic PP1G Digoxygenin-labelled PP1c (γ1-isoform, hereafter termed PP1) was prepared as in [9]. GL was expressed in E. coli as a glutathione-S-transferase (GST) fusion protein [7], termed GST-GL. The catalytic subunit of PP2A from bovine heart (PP2AC) was provided by Dr R. MacKintosh in this Unit. The phosphorylatable myosin light chain (MLC20) and heavy meromyosin from chicken gizzard were a gift from Dr M. Ikebe (Case Western Reserve University, Cleveland, USA). Thrombin and benzamidine-Agarose were purchased from Sigma (Poole, UK).
The amino acid sequence of rat hepatic GL is 23% identical (39% similar) to residues 1-286 of GM from human skeletal muscle. […] Fusion proteins in which GST was linked to fragments of GM were therefore tested for their ability to bind to PP1c. […] We therefore synthesised GM-(G63-T93) and examined its effect on the enzymatic properties of PP1GL, the form of PP1 associated with rat hepatic protein-glycogen particles.

In data set [1] the target is T1, PP1c (Oryctolagus cuniculus, UniProt P62143).
T1 construct: from tissue; host or cells: rabbit skeletal muscle (PP1G dissociated with LiBr)
Put plainly: Phosphorylase phosphatase activity of PP1c. It counts as biochemical, rabbit. The procedure: (§2) A,B; Effects of M110-(M1-E309) (closed circles), M110-(M1-F38) (open circles) and M110-(D39-E309) (open triangles) on the MLC20 phosphatase […] and phosphorylase phosphatase (B) activities of PP1c were measured after incubating PP1c for 15 minutes at 30° C. with each fragment. The results are presented as a percentage of those obtained in experiments where the M110 fragments were omitted.
(§3) C,D; The effect of M110-(M1-A150) (open circles) and M110-(L24-Y496) (closed circles) on the MLC20 phosphatase (C) and phosphorylase phosphatase (D) activities of PP1c were measured as in A,B.
(B) The phosphorylase phosphatase activity of PP1c was assayed as in A in the presence or absence of 1 μM GM-(G63-T93) and 1.0 nM M110-(M1-E309). The results are presented (SEM for three experiments) as a percentage of the PP1c activity measured in the absence of GM-(63-T93), M110-(M1-F38) or M110-(M1-E309).
as §1
(§4) ^32P-labelled rabbit skeletal muscle phosphorylase a (containing 1.0 mol phosphate per mol subunit) was prepared by phosphorylation with phosphorylase kinase, ^32P-labelled rabbit skeletal muscle glycogen synthase (containing 1.5 mol/mol subunit in the sites 3 region) was prepared by phosphorylation with glycogen synthase kinase-3 [24]). ^32P-labelled chicken gizzard MLC20 and ^32P-labelled chicken gizzard heavy meromyosin (containing 1.0 mol phosphate per mol subunit) were prepared by phosphorylation with smooth muscle myosin light chain kinase. The dephosphorylation of phosphorylase a (10 μM), glycogen synthase (1 μM) and MLC20 (1 μM) and heavy meromyosin (1 μM) was carried out as in [24]. One unit of activity (U) was that amount which released […] of phosphate in one minute.
(§5) PP1c was isolated from the rabbit skeletal muscle PP1-GM complex as described previously (Johnson et al, 1996). Glycogen particles isolated from rat liver (Schelling el al, 1988) served as the source of PP1-GL. The dephosphorylation of glycogen phosphorylase (10 μM) and the isolated MLC20 of smooth muscle myosin (1 μM) by PP1c was carried out as described previously (Cohen et al., 1988; Alessi et al., 1992).

In data set [2] the target is T1, PP1c. Nature of the data set: MLC20 (myosin P-light chain) phosphatase activity of PP1c. It counts as biochemical. As to the method: as §2, §3
(A) The MLC20 phosphatase activity of PP1c was assayed after incubation for 15 minutes at 30° C. in the presence or absence of 1 μM GM-(G63-T93) and either 0.1 μM M110-(M1-F38) or 0.1 nM M110-(M1-E309).
(1-38, open circles) or M110[M1-K35] (1-35, closed circles) were incubated with PP1c for 15 min at 30° C. and reactions started with the ^32P-labelled MLC20 substrate. The results are expressed as a % of the activity determined in control incubations where the M110 peptides were omitted (100%). Similar results were obtained in three separate experiments.
as §1, §4, §5
^32P-labelled myosin P-light chains containing 1.0 mol phosphate per mol subunit was prepared by phosphorylation with smooth muscle myosin light chain kinase. The dephosphorylation of myosin P-light chain (1 μM) was carried out as in [4] and one unit of activity (U) was that amount which catalysed the release of 1 μmole of phosphate in one min. When assaying PP1M in immunoprecipitates from the myofibrillar extracts, the tubes were shaken continuously and 3 nM okadaic acid was included to inhibit any PP2A present.

A further data set concerns the target T2, myosin (Gallus gallus, UniProt P10587).
T2 construct: from tissue; host or cells: chicken gizzard
Put plainly: Myosin binding assay (pelleting with myosin). The arrangement: species or system chicken. The note with it: myosin 1 μM, 15 min 0° C. The procedure: The PP1 catalytic subunit (PP1c), PP1M, or PP1M lacking the M21 subunit, PP1M(ΔM21), each at 30 nM, were incubated for 15 min at 0° C. with 1 μM myosin and centrifuged (see Methods of Example 3). […] The results shown are the average (±S.E.M.) for three separate experiments each assayed in duplicate.
(A); PP1M, M110-(M1-S477) and GST-M110-(M377-K976), each at 30 nM were incubated for 15 min at 0° C. with 1 μM myosin and centrifuged. The supernatants (S), resuspended pellets (P) and the suspension before centrifugation (T, total) were electrophoresed on 12% SDS/polyacrylamide gels, transferred to nitrocellulose and immunoblotted with antibodies raised against the PP1M holoenzyme. No protein was pelleted in the absence of myosin (not shown). The positions of the marker proteins myosin heavy chain (200 kDa), glycogen phosphorylase (97 kDa), bovine serum albumin (66 kDa), ovalbumin (43 kDa), carbonic anhydrase (29 kDa) and soybean trypsin inhibitor (20 kDa) are indicated. (B) The experiments were carried out as in (A), except that the M110 fragments and M21 subunit were used at 100 nM, the 8.5 kDa M110-(K933-I1004) fragment was electrophoresed on a 16.5% polyacrylamide gel and immunoblotting was carried out with affinity purified antibodies (see Methods). A small amount of M110-(R714-I1004) pelleted in the absence of myosin. […] No other protein was pelleted in the absence of myosin.
(A); Myosin (1 μM) was mixed with 50 μM, 20 μM or 10 μM M21 subunit to give the molar ratios M21:myosin dimer indicated. After 15 min at 0° C., the solutions were centrifuged and the supernatants (S), resuspended pellets (P) and the suspension before centrifugation (T, total) were electrophoresed on 12% SDS/polyacrylamide gels and stained with Coomassie blue. The positions of the myosin heavy chain (MHC) and the M21 subunit are indicated. The myosin light chains migrate faster than the M21 subunit and are not visible at these loadings.
Myosin binding assays. Myosin (0.5 mg/ml, 1 μM in terms of myosin heavy chains) in 10 mM Hepes pH 7.5, 50 mM KCl, 5 mM MgCl2, 0.1% (by vol) 2-mercaptoethanol, was mixed with PP1M, M21 subunit, or fragments of the M110 and M21 subunits, at the concentrations indicated in figure legends. After incubation for 15 min at 0° C., the solutions were centrifuged for 2 min at 13,000×g, the supernatants removed, and the pellets washed twice in 10 mM Hepes pH 7.5, 50 mM KCl, 5 mM MgCl2, 0.1% (by vol) 2-mercaptoethanol before resuspension in 50 mM Tris-HCl pH 7.5, 0.1 mM EGTA, 0.03% (by mass) Brij 35, 0.6 M NaCl, 0.1% (by vol) 2-mercaptoethanol. Aliquots of the supernatant, the resuspended pellet and the suspension before centrifugation were either assayed for myosin P-light chain phosphatase activity or denatured in SDS and analysed by SDS/polyacrylamide gel electrophoresis.

T1 sequence (P62143 whole entry): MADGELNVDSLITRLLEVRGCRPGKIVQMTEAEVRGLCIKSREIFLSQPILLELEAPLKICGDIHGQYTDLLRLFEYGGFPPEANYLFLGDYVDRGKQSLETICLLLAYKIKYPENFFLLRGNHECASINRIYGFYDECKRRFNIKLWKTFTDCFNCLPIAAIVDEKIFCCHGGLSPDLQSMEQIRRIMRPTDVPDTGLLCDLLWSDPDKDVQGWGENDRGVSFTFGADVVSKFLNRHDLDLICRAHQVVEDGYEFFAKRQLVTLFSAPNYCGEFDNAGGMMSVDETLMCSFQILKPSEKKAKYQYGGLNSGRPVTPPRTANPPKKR
Sequence of PP1c (γ1-isoform) (P36873 whole entry, the tested form may be a part, canonical isoform): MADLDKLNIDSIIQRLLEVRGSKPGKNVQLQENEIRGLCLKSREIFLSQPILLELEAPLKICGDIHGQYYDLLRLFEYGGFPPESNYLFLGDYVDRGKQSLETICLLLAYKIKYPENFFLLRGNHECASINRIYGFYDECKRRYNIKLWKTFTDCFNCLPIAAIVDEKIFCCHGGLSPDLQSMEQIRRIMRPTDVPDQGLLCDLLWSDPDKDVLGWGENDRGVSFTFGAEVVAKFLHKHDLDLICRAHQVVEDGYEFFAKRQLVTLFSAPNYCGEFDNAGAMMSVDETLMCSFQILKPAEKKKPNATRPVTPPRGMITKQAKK
T2 sequence (P10587 whole entry): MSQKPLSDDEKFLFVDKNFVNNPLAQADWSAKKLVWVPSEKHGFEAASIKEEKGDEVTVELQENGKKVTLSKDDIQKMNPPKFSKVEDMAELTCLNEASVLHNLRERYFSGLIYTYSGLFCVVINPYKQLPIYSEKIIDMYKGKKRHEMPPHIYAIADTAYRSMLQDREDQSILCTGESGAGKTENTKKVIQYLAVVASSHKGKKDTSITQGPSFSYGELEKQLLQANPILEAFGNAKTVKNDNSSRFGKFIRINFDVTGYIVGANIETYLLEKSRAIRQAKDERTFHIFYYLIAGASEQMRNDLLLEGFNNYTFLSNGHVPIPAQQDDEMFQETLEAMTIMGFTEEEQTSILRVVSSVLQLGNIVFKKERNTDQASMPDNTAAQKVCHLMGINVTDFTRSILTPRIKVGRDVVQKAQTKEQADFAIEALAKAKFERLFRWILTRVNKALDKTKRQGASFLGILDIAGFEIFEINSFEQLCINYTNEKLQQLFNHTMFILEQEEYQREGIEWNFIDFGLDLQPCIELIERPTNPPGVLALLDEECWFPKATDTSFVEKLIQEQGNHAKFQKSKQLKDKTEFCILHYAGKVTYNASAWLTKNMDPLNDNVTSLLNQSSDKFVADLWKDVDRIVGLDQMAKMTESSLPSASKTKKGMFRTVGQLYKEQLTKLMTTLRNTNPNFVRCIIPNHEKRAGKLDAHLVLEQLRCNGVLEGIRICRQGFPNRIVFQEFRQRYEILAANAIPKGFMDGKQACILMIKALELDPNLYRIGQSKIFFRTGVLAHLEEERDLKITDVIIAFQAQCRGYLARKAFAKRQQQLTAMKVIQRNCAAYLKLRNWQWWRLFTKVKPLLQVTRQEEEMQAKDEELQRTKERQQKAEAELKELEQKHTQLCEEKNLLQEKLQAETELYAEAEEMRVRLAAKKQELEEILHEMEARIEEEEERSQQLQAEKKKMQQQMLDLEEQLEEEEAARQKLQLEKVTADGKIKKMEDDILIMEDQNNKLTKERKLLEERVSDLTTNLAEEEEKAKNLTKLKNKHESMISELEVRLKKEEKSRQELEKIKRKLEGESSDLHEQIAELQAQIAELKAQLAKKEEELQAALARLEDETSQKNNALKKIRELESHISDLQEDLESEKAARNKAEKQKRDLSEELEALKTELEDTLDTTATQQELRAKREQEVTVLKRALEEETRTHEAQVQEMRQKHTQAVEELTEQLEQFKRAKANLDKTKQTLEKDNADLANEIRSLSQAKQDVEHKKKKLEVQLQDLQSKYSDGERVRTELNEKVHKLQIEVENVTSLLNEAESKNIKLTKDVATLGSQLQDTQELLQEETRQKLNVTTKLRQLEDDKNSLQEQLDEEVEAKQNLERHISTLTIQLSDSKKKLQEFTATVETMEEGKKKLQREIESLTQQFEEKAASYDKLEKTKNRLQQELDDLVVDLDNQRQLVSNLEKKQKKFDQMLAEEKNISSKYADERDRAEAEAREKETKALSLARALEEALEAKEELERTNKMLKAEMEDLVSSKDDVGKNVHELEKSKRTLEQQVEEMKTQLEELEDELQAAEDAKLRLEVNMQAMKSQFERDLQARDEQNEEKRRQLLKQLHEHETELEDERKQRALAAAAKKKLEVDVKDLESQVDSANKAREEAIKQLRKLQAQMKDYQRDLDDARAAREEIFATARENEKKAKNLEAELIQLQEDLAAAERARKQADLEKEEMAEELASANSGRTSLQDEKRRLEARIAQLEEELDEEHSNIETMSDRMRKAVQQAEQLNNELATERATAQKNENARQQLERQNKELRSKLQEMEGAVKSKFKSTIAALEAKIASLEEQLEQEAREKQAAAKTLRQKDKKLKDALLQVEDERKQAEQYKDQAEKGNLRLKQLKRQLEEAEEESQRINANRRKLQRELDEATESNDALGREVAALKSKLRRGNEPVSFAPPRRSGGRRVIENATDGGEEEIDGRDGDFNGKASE
T2 sequence (P02612 whole entry partner): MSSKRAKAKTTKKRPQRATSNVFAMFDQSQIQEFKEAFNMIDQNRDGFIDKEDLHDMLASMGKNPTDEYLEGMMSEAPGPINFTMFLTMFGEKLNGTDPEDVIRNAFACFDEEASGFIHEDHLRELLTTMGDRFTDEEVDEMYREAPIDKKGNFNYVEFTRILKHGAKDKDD
T2 sequence (P02607 whole entry partner): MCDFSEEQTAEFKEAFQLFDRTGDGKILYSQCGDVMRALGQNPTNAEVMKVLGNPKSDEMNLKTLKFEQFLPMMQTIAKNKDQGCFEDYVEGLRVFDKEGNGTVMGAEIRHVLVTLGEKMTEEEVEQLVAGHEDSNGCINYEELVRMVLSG

B1: GST-GM-(E2-D118): GST fusion of amino acids 2-118 of human GM (protein)
chain: EPSEVPSQISKDNFLEVPNLSDSLCEDEEVTFQPGFSPQPSRRGSDSSEDIYLDTPSSGTRRVSFADSFGFNLVSVKEFDCWELPSASTTFDLGTDIFHTEEYVLAPLFDLPSSKEDQLNSS
modifications: left off: a dimerising Fc or GST
notes: GST fusion of amino acids 2-118 of human GM
In the case of B1, the “interaction with PP1 in Far Western experiments” value with PP1c (γ1-isoform) is given as “interacted with PP1”.

B2: GST-M110-(M1-S477): GST fusion of rat aorta M110 residues 1-477 (protein)
chain: MKMADAKQKRNEQLKRWIGSETDLEPPVVKRQKTKVKFDDGAVFLAACSSGDTDEVLKLLHRGADINYANVDGLTALHQACIDDNVDMVKFLVENGANINQPDNEGWIPLHAAASCGYLDIAEFLIGQGAHVGAVNSEGDTPLDIAEEEAMEELLQNEVNRQGVDIEAARKEEERIMLRDARQWLNSGHISDVRHAKSGGTALHVAAAKGYTEVLKLLIQAGYDVNIKDYDGWTPLHAAAHWGKEEACRILVDNLCDMETVNKVGQTAFDVADEDILGYLEELQKKQNLLHSEKRDKKSPLIESTANMENNQPQKTFKNKETLIIEPEKNASRIESLEQEKADEEEEGKKDESSCSSEEDEEDDSESEAETDKTKPMASVTNAHTASTQAAPAAVTTPTLSSNQGTPTSPVKKFPTSTTKISPKEEERKDESPASWRLGLRKTGSYGALAEITASKEAQKEKDTAGVIRSASSPRLSSAANSISSLIHRD
modifications: left off: a dimerising Fc or GST
B2: the “effect on the phosphorylase phosphatase activity of PP1c” value in the data set with PP1c [1] was “inhibited the dephosphorylation of glycogen phosphorylase”. In addition, in the data set with PP1c [2], the “effect on the MLC20 phosphatase activity of PP1c” value is on record as “stimulated the PP1c-catalysed dephosphorylation of the myosin P-light chain”. Further, in the data set with myosin, the binding to myosin entry is on record as “neither GST-M110-(M1-S477) nor GST-M110-(M1-E309) bound to myosin”.

B3: GST-GM-(E2-P243): GST fusion of amino acids 2-243 of human GM (protein)
chain: EPSEVPSQISKDNFLEVPNLSDSLCEDEEVTFQPGFSPQPSRRGSDSSEDIYLDTPSSGTRRVSFADSFGFNLVSVKEFDCWELPSASTTFDLGTDIFHTEEYVLAPLFDLPSSKEDLMQQLQIQKAILESTESLLGSTSIKGIIRVLNVSFEKLVYVRMSLDDWQTHYDILAEYVPNSCDGETDQFSFKIVLVPPYQKDGSKVEFCIRYETSVGTFWSNNNGTNYTFICQKKEQEPEPVKP
modifications: left off: a dimerising Fc or GST
notes: GST fusion of amino acids 2-243 of human GM
As to B3, in the data set with PP1c (γ1-isoform), the “interaction with PP1 in Far Western experiments” value is recorded as “interacted with PP1”.

B4: M110-(M1-A150): rat aorta M110 fragment, residues 1-150 (protein, UniProt Q10728 1-150, looked up, fragment)
chain: MKMADAKQKRNEQLKRWIGSETDLEPPVVKRQKTKVKFDDGAVFLAACSSGDTDEVLKLLHRGADINYANVDGLTALHQACIDDNVDMVKFLVENGANINQPDNEGWIPLHAAASCGYLDIAEFLIGQGAHVGAVNSEGDTPLDIAEEEA
Take B4: the “effect on the phosphorylase phosphatase activity of PP1c” value in the data set with PP1c [1] is “modified the specificity of PP1 similarly”. Besides, in the data set with PP1c [2], the “concentration needed to modulate the specificity of PP1c compared to thrombin-cleaved M110-(M1-E309)” value was 10 fold higher and the “effect on the MLC20 phosphatase activity of PP1c” value is “modified the specificity of PP1 similarly”.

B5: M110-(L24-Y496): rat aorta M110 fragment, residues 24-496 (protein, UniProt Q10728 24-496, looked up, fragment)
chain: LEPPVVKRQKTKVKFDDGAVFLAACSSGDTDEVLKLLHRGADINYANVDGLTALHQACIDDNVDMVKFLVENGANINQPDNEGWIPLHAAASCGYLDIAEFLIGQGAHVGAVNSEGDTPLDIAEEEAMEELLQNEVNRQGVDIEAARKEEERIMLRDARQWLNSGHISDVRHAKSGGTALHVAAAKGYTEVLKLLIQAGYDVNIKDYDGWTPLHAAAHWGKEEACRILVDNLCDMETVNKVGQTAFDVADEDILGYLEELQKKQNLLHSEKRDKKSPLIESTANMENNQPQKTFKNKETLIIEPEKNASRIESLEQEKADEEEEGKKDESSCSSEEDEEDDSESEAETDKTKPMASVTNAHTASTQAAPAAVTTPTLSSNQGTPTSPVKKFPTSTTKISPKEEERKDESPASWRLGLRKTGSYGALAEITASKEAQKEKDTAGVIRSASSPRLSSSLDNKEKEKDNKGTRLAY
As for B5, the “effect on the phosphorylase phosphatase activity of PP1c” value with PP1c [1] is “inhibited the phosphorylase phosphatase activity of PP1c in a similar manner to M110-(M1-A150)”. Further, the “effect on the MLC20 phosphatase activity of PP1c” value in the data set with PP1c [2] is “less effective than M110-(M1-A150) or M110-(M1-E309) in stimulating the MLC20 phosphatase activity of PP1c”.
